Data reported in patent US9845340B2, “Peptides that specifically bind HGF receptor (cMet) and uses thereof” (Dyax Corp., priority 2003, dated 2017).

Key:
[1] = target: T1, 3T3 cells that over-express human cMet (Homo sapiens, UniProt P08581); assay: Whole cell ELISA of peptide-displaying phage; assay type: cell-based; conditions: phage isolate; 3T3 cells expressing human cMet vs. non-expressing 3T3 cells
T1 construct: expressed in transfected cells; host or cells: 3T3 cells
Method in brief: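 Phage displaying peptides, pre-blocked 1 h at 37 °C, incubated 1 h at RT on glutaraldehyde-fixed (0.1%, 12 min, 37 °C) cMet-overexpressing 3T3 cells (10^5 per well). Binding read out by HRP anti-M13 antibody after PBST washing.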

[2] = target: cMet-Fc fusion protein (Homo sapiens, UniProt P08581); assay: Protein phage ELISA: peptide-displaying phage binding to soluble cMet-Fc versus TRAIL-Fc; conditions: phage isolate; cMet-Fc vs. TRAIL-Fc
Chain of cMet-Fc fusion protein (P08581 25-307 limits assumed): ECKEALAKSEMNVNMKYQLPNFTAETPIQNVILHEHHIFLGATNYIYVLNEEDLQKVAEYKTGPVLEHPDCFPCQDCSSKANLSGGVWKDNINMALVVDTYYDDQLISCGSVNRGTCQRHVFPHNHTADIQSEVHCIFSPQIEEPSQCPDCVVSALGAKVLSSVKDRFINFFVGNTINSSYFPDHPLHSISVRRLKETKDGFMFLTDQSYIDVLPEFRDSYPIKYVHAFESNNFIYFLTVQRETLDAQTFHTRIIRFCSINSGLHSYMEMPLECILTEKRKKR
Chain of cMet-Fc fusion protein (P08581 with tags, fused parts or gaps limits assumed): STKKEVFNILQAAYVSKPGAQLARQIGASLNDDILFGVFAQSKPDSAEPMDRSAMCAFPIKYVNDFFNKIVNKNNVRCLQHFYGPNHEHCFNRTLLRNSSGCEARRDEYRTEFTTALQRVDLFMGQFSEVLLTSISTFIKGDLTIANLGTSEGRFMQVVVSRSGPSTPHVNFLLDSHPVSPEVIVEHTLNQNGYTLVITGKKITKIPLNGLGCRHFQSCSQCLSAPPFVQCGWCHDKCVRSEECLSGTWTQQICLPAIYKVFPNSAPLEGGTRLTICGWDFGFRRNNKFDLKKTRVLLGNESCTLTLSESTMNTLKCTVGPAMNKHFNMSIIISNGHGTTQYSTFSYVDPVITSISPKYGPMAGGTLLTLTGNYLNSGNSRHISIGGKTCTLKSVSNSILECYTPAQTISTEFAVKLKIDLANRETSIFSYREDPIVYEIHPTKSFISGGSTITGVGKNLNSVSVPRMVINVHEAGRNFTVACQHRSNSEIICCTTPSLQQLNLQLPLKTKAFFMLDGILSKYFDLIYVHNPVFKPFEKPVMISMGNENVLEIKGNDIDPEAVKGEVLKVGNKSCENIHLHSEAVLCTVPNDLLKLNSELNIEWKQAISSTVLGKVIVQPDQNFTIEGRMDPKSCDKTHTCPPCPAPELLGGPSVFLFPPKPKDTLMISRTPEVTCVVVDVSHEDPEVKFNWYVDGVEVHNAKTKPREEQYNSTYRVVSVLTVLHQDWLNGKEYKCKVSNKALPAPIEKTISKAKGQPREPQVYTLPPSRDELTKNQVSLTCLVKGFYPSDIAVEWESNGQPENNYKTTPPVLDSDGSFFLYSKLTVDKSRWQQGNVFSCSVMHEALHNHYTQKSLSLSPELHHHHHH
Method in brief: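 Phage displaying selected peptides were incubated 2 h at room temperature on wells coated with 0.5 μg/mL cMet-Fc, with TRAIL-Fc coating as the unrelated-Fc specificity control.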

T1 sequence (P08581 25-1390): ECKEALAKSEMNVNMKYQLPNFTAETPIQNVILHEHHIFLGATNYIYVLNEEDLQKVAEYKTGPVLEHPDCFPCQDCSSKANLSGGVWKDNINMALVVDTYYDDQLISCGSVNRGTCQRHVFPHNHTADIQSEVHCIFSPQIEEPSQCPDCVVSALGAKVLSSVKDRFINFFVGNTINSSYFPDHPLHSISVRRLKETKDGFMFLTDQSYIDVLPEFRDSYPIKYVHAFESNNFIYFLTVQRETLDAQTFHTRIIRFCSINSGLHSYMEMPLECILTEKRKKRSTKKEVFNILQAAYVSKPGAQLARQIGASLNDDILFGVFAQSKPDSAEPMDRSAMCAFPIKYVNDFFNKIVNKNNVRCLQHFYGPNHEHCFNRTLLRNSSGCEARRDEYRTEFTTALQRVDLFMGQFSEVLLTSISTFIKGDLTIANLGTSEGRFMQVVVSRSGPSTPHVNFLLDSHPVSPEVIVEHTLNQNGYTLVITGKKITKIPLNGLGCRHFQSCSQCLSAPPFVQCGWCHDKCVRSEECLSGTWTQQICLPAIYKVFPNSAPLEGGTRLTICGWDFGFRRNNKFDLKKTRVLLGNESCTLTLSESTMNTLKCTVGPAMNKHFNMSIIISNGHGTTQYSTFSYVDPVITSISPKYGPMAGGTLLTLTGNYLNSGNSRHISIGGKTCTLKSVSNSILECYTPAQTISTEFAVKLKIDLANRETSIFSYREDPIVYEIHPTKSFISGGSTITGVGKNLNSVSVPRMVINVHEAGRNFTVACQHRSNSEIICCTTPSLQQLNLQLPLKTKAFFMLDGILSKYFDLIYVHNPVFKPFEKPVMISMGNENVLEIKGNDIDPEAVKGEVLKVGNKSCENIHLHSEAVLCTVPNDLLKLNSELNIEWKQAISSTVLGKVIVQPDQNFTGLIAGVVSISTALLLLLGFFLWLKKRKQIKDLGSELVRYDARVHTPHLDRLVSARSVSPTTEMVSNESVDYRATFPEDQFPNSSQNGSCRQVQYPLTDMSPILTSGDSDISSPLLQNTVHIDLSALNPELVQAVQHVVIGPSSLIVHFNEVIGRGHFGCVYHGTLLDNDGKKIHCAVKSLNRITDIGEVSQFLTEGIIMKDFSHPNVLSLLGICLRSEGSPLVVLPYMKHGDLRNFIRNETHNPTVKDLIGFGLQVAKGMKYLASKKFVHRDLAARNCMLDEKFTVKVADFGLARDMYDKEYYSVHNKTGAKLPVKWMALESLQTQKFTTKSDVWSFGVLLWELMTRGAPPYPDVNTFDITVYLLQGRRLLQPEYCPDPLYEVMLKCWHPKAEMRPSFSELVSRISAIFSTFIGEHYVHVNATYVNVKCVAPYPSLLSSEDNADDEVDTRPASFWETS

With “AGDGWCMAWPEICEWLGT (Synthetically generated cMet-binding peptide sequence) [SEQ ID NO: 014]” the “WC ELISA” value [1] was 1.33 fold over background and the “Protein ELISA” value [2] was 4.8 fold over background.
“AGETFCVGNPSFECWSWGT (Synthetically generated cMet-binding peptide sequence) [SEQ ID NO: 094]” was tested, and the “WC ELISA” value [1] was 1.27 fold over background and the “Protein ELISA” value [2] was 10.3 fold over background.
In the case of “GSLIICWWSWCDKQAP (Synthetically generated cMet-binding peptide sequence) [SEQ ID NO: 009]”, the “WC ELISA” value [1] is reported as 1.27 fold over background and the “Protein ELISA” value [2] is reported as 3.8 fold over background.
In the case of “AGTMYCLGPPTFICQQYGT (Synthetically generated cMet-binding peptide sequence) [SEQ ID NO: 084]”, the “WC ELISA” value [1] is reported as 1.23 fold over background and the “Protein ELISA” value [2] is reported as 13.0 fold over background.
In the case of “AGYYHCIDDFPQCKWMGT (Synthetically generated cMet-binding peptide sequence) [SEQ ID NO: 017]”, the “WC ELISA” value [1] is reported as 1.37 fold over background and the “Protein ELISA” value [2] is reported as 3.9 fold over background.
With “AQSDHDHAHWGVKHWPFRRYQ (Synthetically generated cMet-binding peptide sequence) [SEQ ID NO: 482]” the “WC ELISA” value [1] was 1.20 fold over background and the “Protein ELISA” value [2] was 3.1 fold over background.
For “AGTLSCSEEYKSCQLQGT (Synthetically generated cMet-binding peptide sequence) [SEQ ID NO: 027]”, the “WC ELISA” value [1] was 1.30 fold over background and the “Protein ELISA” value [2] was 3.6 fold over background.
With `CC[C@H](C)[C@H](NC(=O)[C@@H](NC(=O)[C@H](CCC(=O)O)NC(=O)[C@H](Cc1c[nH]cn1)NC(=O)[C@@H](NC(=O)[C@H](C)NC(=O)[C@@H]1CCCN1C(=O)[C@H](CC(N)=O)NC(=O)[C@H](Cc1ccccc1)NC(=O)[C@H](CCCCN)NC(=O)[C@H](Cc1ccccc1)NC(=O)[C@H](Cc1c[nH]cn1)NC(=O)[C@@H](NC(=O)[C@@H](NC(=O)[C@H](C)NC(=O)[C@H](CCSC)NC(=O)[C@H](CC(=O)O)NC(=O)[C@H](CCC(=O)O)NC(=O)[C@@H](NC(=O)[C@H](CCC(N)=O)NC(=O)[C@H](C)NC(C)=O)C(C)C)[C@@H](C)O)C(C)C)[C@@H](C)O)C(C)C)C(=O)N[C@@H](Cc1c[nH]c2ccccc12)C(=O)NCC(=O)NCC(=O)NCC(=O)N[C@@H](CCCCNC(=O)c1ccc2c(c1)C(=O)OC21c2ccc(O)cc2Oc2cc(O)ccc21)C(N)=O` [SEQ ID NO: 492] the “WC ELISA” value [1] was 1.53 fold over background and the “Protein ELISA” value [2] was 3.2 fold over background.
With “AGAWNCEYPTFICEWQGA (Synthetically generated cMet-binding peptide sequence) [SEQ ID NO: 012]” the “WC ELISA” value [1] was 1.27 fold over background and the “Protein ELISA” value [2] was 4.5 fold over background.
With “GDASWCDENSPAAWFYCELWDP (Synthetically generated cMet-binding peptide sequence) [SEQ ID NO: 394]” the “WC ELISA” value [1] was 1.37 fold over background and the “Protein ELISA” value [2] was 13.4 fold over background.
“GDLLVCKFDDKFWTETCEWADP (Synthetically generated cMet-binding peptide sequence) [SEQ ID NO: 392]” was tested, and the “WC ELISA” value [1] was 1.47 fold over background and the “Protein ELISA” value [2] was 23.7 fold over background.
`CC(=O)N[C@@H](C)C(=O)NCC(=O)N[C@@H](CO)C(=O)N[C@@H](Cc1ccccc1)C(=O)N[C@@H](C)C(=O)N[C@H]1CSSC[C@@H](C(=O)N[C@H](C(=O)N[C@@H](CCC(=O)O)C(=O)N[C@@H](Cc2ccccc2)C(=O)NCC(=O)N[C@H](C(=O)NCC(=O)NCC(=O)NCC(=O)N[C@@H](CCCCNC(=O)c2ccc3c(c2)C(=O)OC32c3ccc(O)cc3Oc3cc(O)ccc32)C(N)=O)[C@@H](C)O)C(C)C)NC(=O)[C@H](C)NC(=O)[C@H](Cc2ccccc2)NC(=O)[C@H]([C@@H](C)O)NC(=O)[C@@H]2CCCN2C(=O)[C@@H]2CCCN2C(=O)CNC(=O)[C@H](CCCCN)NC1=O` [SEQ ID NO: 053] was tested, and the “WC ELISA” value [1] was 1.27 fold over background and the “Protein ELISA” value [2] was 18.1 fold over background.
With “AGWWSCQWELNVCIWQGT (Synthetically generated cMet-binding peptide sequence) [SEQ ID NO: 016]” the “WC ELISA” value [1] was 1.33 fold over background and the “Protein ELISA” value [2] was 4.1 fold over background.
For “AQGGRYPFYDTDWFKWEMYVL (Synthetically generated cMet-binding peptide sequence) [SEQ ID NO: 496]”, the “WC ELISA” value [1] was 1.30 fold over background and the “Protein ELISA” value [2] was 3.8 fold over background.
With “GSQQICDRKEYRFQACLSDAP (Synthetically generated cMet-binding peptide sequence) [SEQ ID NO: 371]” the “WC ELISA” value [1] was 1.40 fold over background and the “Protein ELISA” value [2] was 3.4 fold over background.
In the case of “AGETKCSGPPYFYCWMEGT (Synthetically generated cMet-binding peptide sequence) [SEQ ID NO: 093]”, the “WC ELISA” value [1] is reported as 1.23 fold over background and the “Protein ELISA” value [2] is reported as 16.3 fold over background.
“AGDFICQGPPSFVCTNIGT (Synthetically generated cMet-binding peptide sequence) [SEQ ID NO: 097]” was tested, and the “WC ELISA” value [1] was 1.27 fold over background and the “Protein ELISA” value [2] was 8.4 fold over background.
In the case of “GSFTACNKTSTTRQPCNPYAP (Synthetically generated cMet-binding peptide sequence) [SEQ ID NO: 384]”, the “WC ELISA” value [1] is reported as 1.37 fold over background and the “Protein ELISA” value [2] is reported as 3.1 fold over background.
With “GDLLGCGYQEKGGEYKCRFNDP (Synthetically generated cMet-binding peptide sequence) [SEQ ID NO: 395]” the “WC ELISA” value [1] was 1.40 fold over background and the “Protein ELISA” value [2] was 13.5 fold over background.
“GSFNICPYQWCTLWAP (Synthetically generated cMet-binding peptide sequence) [SEQ ID NO: 010]” was tested, and the “WC ELISA” value [1] was 1.37 fold over background and the “Protein ELISA” value [2] was 3.0 fold over background.
For “AQRDYLFYWNDGSYQPWQVFVG (Synthetically generated cMet-binding peptide sequence) [SEQ ID NO: 493]”, the “WC ELISA” value [1] was 1.30 fold over background and the “Protein ELISA” value [2] was 5.5 fold over background.
With “AQWNWDMGFMWTTDSAQVQPSM (Synthetically generated cMet-binding peptide sequence) [SEQ ID NO: 489]” the “WC ELISA” value [1] was 1.37 fold over background and the “Protein ELISA” value [2] was 3.0 fold over background.
In the case of `CC[C@H](C)[C@H](NC(=O)[C@H](Cc1c[nH]c2ccccc12)NC(=O)[C@H](Cc1c[nH]cn1)NC(=O)CNC(=O)[C@H](C)NC(C)=O)C(=O)N[C@H]1CSSC[C@@H](C(=O)N[C@@H](CCC(N)=O)C(=O)N[C@@H](Cc2c[nH]c3ccccc23)C(=O)N[C@@H](Cc2c[nH]cn2)C(=O)NCC(=O)N[C@H](C(=O)NCC(=O)NCC(=O)NCC(=O)N[C@@H](CCCCNC(=O)c2ccc3c(c2)C(=O)OC32c3ccc(O)cc3Oc3cc(O)ccc32)C(N)=O)[C@@H](C)O)NC(=O)[C@H](CO)NC(=O)[C@H](Cc2ccccc2)NC(=O)[C@H]([C@@H](C)O)NC(=O)[C@@H]2CCCN2C(=O)[C@@H]2CCCN2C(=O)CNC(=O)[C@H](C(C)C)NC1=O` [SEQ ID NO: 071], the “WC ELISA” value [1] is reported as 1.40 fold over background and the “Protein ELISA” value [2] is reported as 13.5 fold over background.
“GSGMGCHQVNISTGDCAEDAP (Synthetically generated cMet-binding peptide sequence) [SEQ ID NO: 381]” was tested, and the “WC ELISA” value [1] was 1.43 fold over background and the “Protein ELISA” value [2] was 3.9 fold over background.
For `CC[C@H](C)[C@H](NC(=O)[C@H](CC(C)C)NC(=O)[C@H](CCCCN)NC(=O)[C@H](CCC(=O)O)NC(=O)[C@@H](NC(=O)[C@@H](NC(=O)[C@@H](NC(=O)[C@H](C)NC(=O)[C@H](CO)NC(=O)[C@H](CC(C)C)NC(=O)[C@H](Cc1c[nH]c2ccccc12)NC(=O)[C@H](CC(=O)O)NC(=O)[C@@H]1CCCN1C(=O)[C@@H](NC(=O)[C@H](CCC(N)=O)NC(=O)[C@H](C)NC(C)=O)C(C)C)C(C)C)C(C)C)[C@@H](C)CC)C(=O)N[C@@H](CCC(=O)O)C(=O)N[C@@H](Cc1ccc(O)cc1)C(=O)NCC(=O)N[C@@H](CCSC)C(=O)N[C@@H](CCSC)C(=O)N[C@H](C(=O)NCC(=O)NCC(=O)NCC(=O)N[C@@H](CCCCNC(=O)c1ccc2c(c1)C(=O)OC21c2ccc(O)cc2Oc2cc(O)ccc21)C(N)=O)C(C)C` [SEQ ID NO: 464], the “WC ELISA” value [1] was 1.37 fold over background and the “Protein ELISA” value [2] was 4.4 fold over background.
In the case of “GDHRKCEISAKTHEVTCYDNDP (Synthetically generated cMet-binding peptide sequence) [SEQ ID NO: 402]”, the “WC ELISA” value [1] is reported as 1.17 fold over background and the “Protein ELISA” value [2] is reported as 5.2 fold over background.
“AGGHWCLELKHLCPPYGT (Synthetically generated cMet-binding peptide sequence) [SEQ ID NO: 044]” was tested, and the “WC ELISA” value [1] was 1.23 fold over background and the “Protein ELISA” value [2] was 4.1 fold over background.
In the case of “GSMLGCLFEHQNKYDCYVLAP (Synthetically generated cMet-binding peptide sequence) [SEQ ID NO: 379]”, the “WC ELISA” value [1] is reported as 1.43 fold over background and the “Protein ELISA” value [2] is reported as 3.2 fold over background.
